Laboratory results: IntAct's records for PubMed 25374563

B1: Tyrosine-protein kinase YwqD (Bacillus subtilis), P96716 (parent)
chain: MALRKNRGSRMQRNVIAMTEPKSLNSEQYRTIRTNIEFASVDRQMKSVMITSACPGEGKSTTAANLAVVFAQQGKKVLLIDADLRKPTVHTAFFLENTVGLTSVLLKKSSMEQAVQASNEKHLDVLTSGPIPPNPAELLSSKWMKELAYEACAAYDMVIFDTPPILAVADAQILGNVADGSVLVISSGKTEKEQAAKAKEALATCKSKLLGAIMNGKKLSKHSEYGYYGTKDNFMQK
partner: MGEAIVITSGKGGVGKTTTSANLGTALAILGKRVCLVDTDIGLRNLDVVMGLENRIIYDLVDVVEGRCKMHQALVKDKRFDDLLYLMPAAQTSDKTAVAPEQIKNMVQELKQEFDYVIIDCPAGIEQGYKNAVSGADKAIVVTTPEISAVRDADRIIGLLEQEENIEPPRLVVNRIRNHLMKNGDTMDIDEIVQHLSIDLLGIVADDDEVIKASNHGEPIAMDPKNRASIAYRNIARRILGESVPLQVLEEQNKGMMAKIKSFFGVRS

Variants of: B1
Conditions: with mind_bacsu minD

effect of a mutation on the interaction | Variant
disrupting interaction strength | MALRKNRGSRMQRNVIAMTEPKSLNSEQYRTIRTNIEFASVDRQMKSVMITSACPGEGMSTTAANLAVVFAQQGKKVLLIDADLRKPTVHTAFFLENTVGLTSVLLKKSSMEQAVQASNEKHLDVLTSGPIPPNPAELLSSKWMKELAYEACAAYDMVIFDTPPILAVADAQILGNVADGSVLVISSGKTEKEQAAKAKEALATCKSKLLGAIMNGKKLSKHSEYGYYGTKDNFMQK [K59M]
decreasing interaction strength | MALRKNRGSRMQRNVIAMTEPKSLNSEQYRTIRTNIEFASVDRQMKSVMITSACPGEGKSTTAANLAVVFAQQGKKVLLIAADLRKPTVHTAFFLENTVGLTSVLLKKSSMEQAVQASNEKHLDVLTSGPIPPNPAELLSSKWMKELAYEACAAYDMVIFDTPPILAVADAQILGNVADGSVLVISSGKTEKEQAAKAKEALATCKSKLLGAIMNGKKLSKHSEYGYYGTKDNFMQK [D81A]
